Reference: the nanobody polyreactivity screen of Harvey et al. (2022)

Assay: yeast display, Sf9 membrane polyspecificity reagent, FACS + sequencing; frameworks hold sequencing errors
Summary of the method: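 A nanobody's polyreactivity label depends on the gate it was sorted from. Yeast display cells were stained with 10% biotinylated, detergent-solubilized Sf9 membrane reagent for 1 hour at 4 °C, enriched on streptavidin microbeads and sorted by FACS. The low and high (top ~1%) gates were set on anti-HA fluorescence for expression and streptavidin fluorescence for reagent binding.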

Sequence | polyreactivity (PSR sort gate)
QVQLVESRGGLVQAGGSLRLSCAASGLIFLGYAMGWYRQAPGKERELVASIRTGGSTSYADSVKGRFTISRDNAKNTVYLQMNSLKPEDTAVYYCAADRGRPNLPGDYWGQGTQVTVSS | low polyreactivity
QVQLVESAGGLVQAGGSLSLSCAASGSILSRYAMGWYRQAPGKERELVAAINWSGSSTYYADSVKGRFTISRDNAKNTVYLQMNSLKPEDTAVYYCAKLYVTPRRLPYDYWGQGTQVPVSS | high polyreactivity
QVQLVESGGGLVQAGGSLRLSCAASGLTFAGYAMGWYRQAPGKERELVAAITYSTGRTYYADSVKGRFTISRDNAKTTVYFQMNSLKPEDTAVYYCAALLRGQDRTMDYWGQGTQVTVSS | high polyreactivity
QVQLEESGGGLVQAGGSLRLSCAASGITFYYYAMGWYRRAPGKERELVAANSSGGSKSYADSVKGRFTISRDNAKNNVYLQMNSLKPDDSAVYYCAADLPYLWYPFYYWGQGTQVTVSS | high polyreactivity
QVQLVESGGGLVQAGGSLRLSCAASGRTYVRNAMGWYRQAPGKERELVAGITRSGGSTYYADSVKGRFTISRDNAKNTVYLQMNSLKPEDTAVYYCAKRYDVYVGTVRPYDYWGQGTQVTVSS | low polyreactivity
QVQLVESGGGLVQAGGSLRLSCAASGFTFPYYTMGWYRQAPGKERELVAAISKSGGSTYYADSVKGRFTISRDNAKNTVYLEMHSLKPEDTAVYYCNARRGSPAPYDYWGQGTQVTVSS | high polyreactivity
QVQLVESGGGLVQAGGSLRLSCAASGSTFKFYAMGWYRQAPGKARELVASITSSSGPTYYADSVKGRFTISRDNAKNTVYLQMNSLKPEDPAVYYCNKDWRRYWLRGDYWGQGTQVTVSS | low polyreactivity
QVQLVESGGGLVQAGGSLRLSCAASGSIFNSYAMGWYRQAPGKERELVAAISSGGGRTYYAVSVKGRFKISRDNAKNTVYLQMNSLKPEDTAVYYCAKYYRAFIRDYNYWGQGTQVTVSS | high polyreactivity
QVQLVESGGGLVQAGGSLRLSCAASGFIFPVNAMGWSRQAPGKERELVAGITSSGGSTYYADSVKGRFTISRDNAKNTVYLQMNSRKPEDTAVYYCNAYIDALPVSYHFDYWGQGTQLTVSS | low polyreactivity
QVQLVESGGGLVQAGGSLRLSCAASGSILSTYAKGWYRQAPGKERELVASISSNAGSTYYADSVKGRFTISRDNAKNTVYLQMNSLKPEDTAVYYCNKVYGGGTYDYWGQGTQVTVSS | low polyreactivity
QVQLVESGGGLVQAGGSLRLSCAASGRTLPYNAMGWYRQAPGKERELVAAISKRGSSTYYADSVKGRFTISRDNAKNTVYLQMNSLKPEDTAVYYCAKGGSFYYWGQGTQVTVSS | high polyreactivity
QVQLVESGGGLVQAGGSLRLSCAASGFTFRYYAMGWYRPAPGKERELVAAISSGGRTNYADSVKGRFTISRDNAKNTVYLQMNSLKPEDTAVYYCATASRRGDPRLRFYYWGQGTQVTVSS | high polyreactivity
QVQLVESGAGLVQAGGRLRLSCGASGRIFGRNAMGLYRQGPGKERELVAAISYSGGSTYYADSVKGRFTISRDNAKNTVYLQMNSLKPEDTAVYYCAARYTRSGYYWGQGTQVTVSS | high polyreactivity
QVQLVESGGGLVQAGGSLRLSCAASGRTFGLNVMGWYRQAPGKERELVATISGVGSTNYADSVKGRFTISRDNAKNTVYLQMNSLKPEDTAVYYCDKDPHVGRWWDLYSPYYSWGQGTQVTVSS | low polyreactivity
QVQLVESGGGLVQAGGRLRLSCAASGFTYRGNAMGWYRHAPGKERELVAAITSSDDSTYYADSVKGRFTISRDNAKITVYLQMNSLKPVDTAVYYCAAVANGYWTYEYWGQGTLVTVSS | low polyreactivity
QVQLVESGGGLVQAGGSLRLSCAASGLIFSSNVMGWYRQAPGKERQLVAAIRQRGGSTRYADSVKGRFTISRDNAKNTVYLQMNSLKPEDTEVYYCAADTYYSHSWDSYDYWGQGTQVTVSS | low polyreactivity
QVQLVESGGGLVQAGGSLRLSCAASGITFDDYDMGWYRQAPGKEREFVAAISFSGSSTYYADSVKGRFTISRDNAKNTVYLQMNSLKPEDTAVYYCNADYVYSGGRYYGKDYWFDYWGQGTQVTVSS | low polyreactivity
QVQLVESGGGLVQAGGSLRLSCAASGSIFARNAMGWYRQAPGKERELVAAISRSGGITYYADSVKGRFTISRDNAKNTVYLQMNSLKPEDTAVYYCATVGYYKGNQVLPAKDGDSWGQGTQVTVSS | high polyreactivity
QVQLVESGGGLVQAGGSLRLSCAASGRIFAYYTMGWYRQAPGKERELVASITSGSSTNYADSVKGLFTISRDNAKNTVYLQMNSLKPEDTAVYYCAAPRGSYVRTRYRGYVVQSNYWGQGTQVTVSS | high polyreactivity
QVQLVESGGGLVQAGGSLRLSCAASGSIFTYYVMGWYRQAPGKERELVAVISRRGGRTYYADSVKGRFTISRDNAKNTVYLQMNSLKPEDTAVYYCATTYKTRYGGRYRYYYWGQGTQVTVSS | high polyreactivity
QVQLVESGGGLVQAGGSLRLSCAASGFTLYGNVMGWYRQAPGKERELVASISWSGGNTYYADSVKGRFTISRDNAKNTVYLQMNSLKPEDTAVYYCNANYYDKYGYWGQGTQVTVSS | low polyreactivity
QVQLVESGGGLVQAGGSLRLSCAASGSTFLVYARGWYRQAPGKERELVADITSRGGSTYYADSVKGRFTISRDNAKNTVYLQMNSLKPEDTAVYYCAALKRVVLFDYWGQGSQVTVSS | low polyreactivity

Sequence | polyreactivity (PSR sort gate)
QVQLVESGGGLVQAGGSLRLSCAASGFTFDLYAMGWYRQAPGKERELVAAISWSGGSTRYADSVKGRFTISRDNAKNTVYLQMNSLKPADSAVYYCARQPRLYFKGKLYGYWGQGTHVTVSS | high polyreactivity
QVQLVETGGGLVQAGASLRLSCAASGRTFVYNAMGWYRQAPGKEREFVAAIDGGGDRTFYADSVKGRFTISRDYAKNTVYLQMNSLKPEDTAVYYCARDPGDTYYYSYPEGDYWGQGTQVTVSS | low polyreactivity
QVQLVESGGGLVQAGGSLRLSCAASGRTFRYYAMGWYRQAPGKERELFAAITSTGSTNYADSVKGRFTISRDNAKNTVYLQMNSLKPEDTAVYYCAARVNGKRRRYDYWGQGTQVTVSS | high polyreactivity
QVKRVESGGVLVQAGGSLRLSCAASGFIFLLNDMGWYRQAHGKERDLVAAISRGGGSTYYADSVKGRFTISRDNAKNTVYLQMNSLKPEDTAVYYCAAKPGKTPLTGHRGPYDTGYGYCGQGTQVTVSS | low polyreactivity
QVQLVESGGGLVQEGGSLSLSCAASGITLSLYAMGRYRQAPGKERELVAAISRSGGSTYYAYSVKGRFTISRDNAKNTVYLQMNSLKPVDTAFFYCATSWTPNYFVTSDYWGQGTQVTVSS | high polyreactivity
QVQLVESGGGLVQAGGSLRLSCAASGFTFSLYDMGWYRQAPGKERELVADINGSGGSTYYSDSVKGRFTISRDNAKYTVYFQMNSLKPEDTAVYYCAAGPPSRWWYFVDYGYWGQGTQVTVSS | high polyreactivity
QDQLVESGVGLVQAGGSLRLSCAASGSTFYYYAMGWYRQAPGKERELVAAITSDGSTNYADSVKGRFTISRDNAKNTVYLQMNSLKTEDTAVYYCAKTYYWGYDWGQGTQVTVSS | low polyreactivity
QVQLVESGGGLVQAGGSLRLSCAASGRIFSYNAMGWYRQAPGKERELVAAISTGTSTYYADSVKGRFTISGDNAKNTVYLQMNSLKPEDTAVYYCAVDAYYWYQWYDYWGQGTQVTVSS | low polyreactivity
QVQLVESGGGLVQAGGSLRLSCAASARILAYYAMGWYRQAPGKERELVAAITSGGRTYYADSVKGRFTISRDNAKNTVYLQMNSLKPEDTAVYYGAVRWYPRYGSRYDYWGQGTQVTVSS | high polyreactivity
QVQLVESGGGLVQAGGSLRLSCAASGIIFDSYVMGWYRQAPGKERELVAAISFRGGSTYYADSVKGRFTISRDNAKNTVYLQMNSLKPEDTAVYYCAAEGRGYTEYYWGQGTQVTVSS | high polyreactivity
QVQLVESGGGLVQAGGSLRLSWAASGITFATKAMGWYRQAPGKERELVAGITSGGSTYYADSVKGRFTISRDNAKNTVYLQMNSLQPEDTAVYYCANRYHYWYGTGYDYWGQGTQVTVSS | low polyreactivity
QVQLVESGGGLVQAGGSLRLTCAASGRIFRPYTMGWYRQAPGKESELVARISISTGRTYYADSVKGRFTISRDNAKNTVYLQMNSLKPEDTAVYYCATRGYRWSVFDYWGQGTQVTVSS | high polyreactivity
QVQLVESGGGLVQAGGSLRLSCAASGFTFYPYAMGWYRQAPGKERELVASISWSGGSTYYADSVKGRFTISRDNAKNTVYFQMNSLKPEDTAVYYCNAEYWLPYYPDYDFWGQGTQVTVSS | low polyreactivity
QVQLVESGGGLVQAGGSLRLSCAASGRTFYYYAMGWNRQAPGKEREFVASITWRGGRTYYADSVKGRFTISRDYAKNTVYLQMNSLKPEDTAVYYCAADGSYAIGGYGYWGQGTQVTVSS | high polyreactivity
QVQLVESGGGLVHAGGSLRLSCAASGSTFIYNAMGWDRQAPGKERELVAAITWNGGSTYYADSVKGRFTLSRDIAKNTVYLQMISLNPEDTAVYYCAVDKGSQPHYDYWGQVTQVTVSS | low polyreactivity
QVQLEESCGGLVQAGGSLRLSCAASGPIIRAYAMGWYRQAPGKERELVAAITRSGGSTYYADSVKGRFTISLDNAKNTVYLQMNSLKPEDTAVYYCNARTRYDDGYDSWGQGTQVTVSS | high polyreactivity
QVQLVESGGALVQAGGSLRLSCAASGRIFGGYAMGWYRQAPGTERELVAAISSGGRTYYADSVKGRFTISRDNAKNTVYLQMNSLKPEDTAVYYCNAYTRGFRLGYWGQGTQVTVSS | high polyreactivity
QVQLVESGGGLVQAGGSLRLSCAASGRTFGKYAMGWYRQAPRKEREFFAAISRSGGNTYYADTVKGRFTISRDNAKNTVYLQMTSLIPEDTAVYYCARGLSTYVLSHGLEYRTYFYWGQGTQVTVSS | high polyreactivity
QVQVVESGGGIVKAGGSLRLSCAPSGSTFYYYAMGWYRQAPRKERELVATISWSGDSTYADSVKGRFTISRDNSKNTVYLQLTSLKPEDTAVYYCATCGDWWGFRYDYWGQCTQVTVSS | low polyreactivity
QVQLVESGGGLVQAGGSLRLSCAASGLTFGLNAMGWYSQAPGKERELVAAITWSGGSTYYADSVKGRFTISRDNAKNTVYLQMNSLKPEDTAVYYCATDNLSVNGGYNYWGQGTQVTVSS | low polyreactivity
QVQLVESGGGLVQAGGSLRLSCAASGITFTRYAMGWYRQAPGKEREFVAAIRRSGGNTYYADSVKGRFTISRDNAKNTVYLQMNSLKPEDTAVYYCAASPDIIGTSGEDDYWGQGSQVTVSS | low polyreactivity
